Test results reported in paper PMC12708648 (2025).

T1: NS3-GST (rice stripe virus (RSV))
T1 chain: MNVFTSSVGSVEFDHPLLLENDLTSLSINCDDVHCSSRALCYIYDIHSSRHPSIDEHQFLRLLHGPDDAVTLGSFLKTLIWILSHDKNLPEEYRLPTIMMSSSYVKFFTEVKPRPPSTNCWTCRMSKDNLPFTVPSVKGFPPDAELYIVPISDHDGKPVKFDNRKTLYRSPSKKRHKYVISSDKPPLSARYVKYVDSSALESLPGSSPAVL

T2: CP-GST (rice stripe virus (RSV), UniProt P68559 1-322)
T2 chain: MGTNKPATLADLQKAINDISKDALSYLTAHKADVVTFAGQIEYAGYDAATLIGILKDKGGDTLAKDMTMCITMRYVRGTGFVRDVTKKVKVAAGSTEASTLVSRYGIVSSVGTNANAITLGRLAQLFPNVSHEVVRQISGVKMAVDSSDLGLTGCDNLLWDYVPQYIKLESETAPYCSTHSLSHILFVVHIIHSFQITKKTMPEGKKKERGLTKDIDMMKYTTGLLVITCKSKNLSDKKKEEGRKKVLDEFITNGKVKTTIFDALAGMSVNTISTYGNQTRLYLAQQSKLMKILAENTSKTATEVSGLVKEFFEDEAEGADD

B1: OsVIRK1C-His (domain or fragment)
chain: LCKRNRKPHKHMMIGSVDLGDEDEMRGSESLLYDLSTLRAATANFSEENKLGEGGFGPVYKGTLQNGQEIAVKRLSATSHQGQLEMKNEVVLVAKLQHKNLVRLLGCCIEEREKILVYEFLCNKSLDTILFDTSRQQDLNWEQRFKIIEGIGRGLLYLHEDSRLKIIHRDLKASNILLDVDMNPKISDFGLAKLFNMEASVANTSRIAGTYGYMAPEYALHGIFSAKSDVFSYGVLLLEIVTGRRNTCLHDSEDLLAFVWRHWSRGGAGELLDGCPAAGRRPQELLRCIHVGLLCVQEDPQLRPGMAAVVVMLNSRSVTLPAPSAPAFVSASRGIGGSPPPAAAAGDAPARSTDHEVPTAAR
modifications: labelling dye (NanoTemper) in the MST assay
B2: OsVIRK1N-His (domain or fragment)
chain: MAPPPPSPPCRPRVKPERALLCFSLLLLLTATTANASITDCPTTSSTNSSHVDDGAFGANLRALLSSLSAAAAASSSGFAENATGAAPDTAYGLAQCRGGIVGGGNGTSCRSCLDDSVRDAAKACPGEKSAVIISDYCLVRYSNASFAGAADERTVKLWWNTDNATQPERFKSLLGTLMGNLTDAAARASSPLMFAAGETDLPPFTKIYGMAQCTRDLAAGDCYRCLVGAVNNIPKCCDGKQGGQVITRSCSIRFEVYPFFDA
modifications: labelling dye (NanoTemper) in the MST assay

Legend:
NS3-GST = target: T1, NS3-GST; assay: MST
CP-GST = target: T2, CP-GST; assay: MST

Row | Binder | Kd (NS3-GST) | Kd (CP-GST)
1 | B1 | 4250 nM | 704 nM
2 | B2 | 5200 nM | 1300 nM
